# Test results reported in patent US11839630B2, “CAR-T cells targeting IL-1RAP and their use” (ETABLISSEMENT FRANCAIS DU SANG, priority 2017, dated 2023).
# T1: IL-1RAP (Homo sapiens, UniProt Q9NPH3)
# T1 sequence (Q9NPH3 21-570): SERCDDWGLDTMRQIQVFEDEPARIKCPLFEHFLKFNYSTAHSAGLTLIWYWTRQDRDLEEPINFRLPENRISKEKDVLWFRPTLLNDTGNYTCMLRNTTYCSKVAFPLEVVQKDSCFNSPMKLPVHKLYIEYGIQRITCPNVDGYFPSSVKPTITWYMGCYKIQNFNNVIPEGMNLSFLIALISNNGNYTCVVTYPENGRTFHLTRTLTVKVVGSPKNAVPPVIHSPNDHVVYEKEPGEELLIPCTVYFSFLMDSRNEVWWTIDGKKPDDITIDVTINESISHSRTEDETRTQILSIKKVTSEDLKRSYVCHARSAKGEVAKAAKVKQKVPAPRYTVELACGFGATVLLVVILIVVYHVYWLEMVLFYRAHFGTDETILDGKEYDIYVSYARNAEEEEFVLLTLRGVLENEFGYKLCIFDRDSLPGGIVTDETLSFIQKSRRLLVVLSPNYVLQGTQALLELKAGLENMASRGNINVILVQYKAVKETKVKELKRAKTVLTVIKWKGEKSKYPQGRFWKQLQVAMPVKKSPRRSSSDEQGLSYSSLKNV
# Assays:
# [1] = tested on: IL-1RAP-positive (KU812) cell line; assay: FACS screening of hybridoma subclones; type: binding, human; details: 5 monoclonal antibody subclones
# Text: Briefly, BALB/c mice (5 weeks, Charles River) were immunized either by foot pad (n=3) or intraperitoneally (n=5) with a recombinant fusion protein consisting of the extra cellular part of IL-1RAP (NM_002182.2, NCBI) and the Fc-part of human IgG1 (R&D Systems, Lille, France). Lymph nodes or spleens cells and blood samples were harvested and cells were fused with the mouse myeloma cell line, then screened by FACS analysis (Becton Dickinson), against IL-1RAP-positive (KU812) and −negative (Raji, KG1) cell lines.
# Screening of hybridoma allowed to select 5 monoclonal antibodies subclones that discriminate IL-1RAP positive (KU812 or KG-1 respectively AML or Phi^+p^210 CML) from negative cell lines (Tom-1, NALM-20, Jurkat or Raji, respectively Phi+^p190 B-ALL, Phi-B-ALL, T-ALL or Burkitt's lymphoma).
# Molecular characterization was performed by Sanger sequencing of cloned PCR products amplification obtained with degenerated primers specific of the FR1 and constant regions of the heavy and light chains according to the protocol of Wang. Z., et al (J. Immunol. Methods, 2000; 233, pp 167-77). Identification of V-D-J-C gene rearrangement and CDR3 region was obtained after alignment of consensus nucleotide sequences against the IMGT® database using V-QUEST online tool according to Brochet X., et al. (Nucleic Acids Res., 2008, 36, pp 503-8).
# IL-1RAP = target: T1, IL-1RAP; assay: Western blot with #E3C3 mAb; type: binding; details: leukemic cell line lysates; #E3C3 diluted 1:10^3
# Text: FIG. 1: Use of #E3C3 mAb in western blot. The leukemic cell lines KU812, KG-1, Nalm-20, Jurkat, and Raji are used. Transfected HT1080 cell line with IL-1RAP cDNA variant was used as control. […] Line a: detection of IL-1RAP (72 kDA), Line b: detection of the control actin (43 kDA), *: weak signal.
# Whole-cell, subcellular or secreted protein fractions of cells listed in example 1 were obtained after sonication and suspended in RIPA lysis and extraction buffer (ThermoFisher Scientific) supplemented with a protease inhibitor cocktail (complete Mini EDTA-free; Roche, Switzerland). Transfected HT1080 cell line with IL-1RAP cDNA variant 1 (NM_002182.2, NCBI) was used as control. […] Transferred proteins on PDVF membranes were probed overnight with either primary IL-1RAP #E3C3 (diluted at 1:10^3), CD3zeta (BD Pharmigen, clone #8D3) or β-actin (1:10^3, clone AC15, #A5441, Sigma-Aldrich) respectively for IL-1RAP, CAR or β-actin expression. Immunodetection staining was performed with a secondary polyclonal antibody sheep anti-mouse IgG (#515-035-062, Jackson, USA). Detection was performed with a camera and Bio-1D software (Vilber-Lourmat, Collegien, France).
# monocyte subpopulation = assay: IL-1RAP cell surface staining of healthy donor monocytes; type: binding, human; details: 2/5 peripheral blood and 3/5 bone marrow from healthy donors
# Protocol: FIG. 23: Effect of IL-1RAP CAR T cells on healthy hematopoietic cells and efficiency of the safety suicide gene iCASP9 cassette. (A) IL-1RAP cell surface expression on peripheral blood (left) or bone marrow (right) cells from healthy donors (n=5). SSC-A/CD45+ allowed discrimination of subpopulations as lymphocytes (SSC-A low), monocytes (CD33+), granulocytes (SSC-A high), or HSCs (CD33−/CD34+). RFI was calculated from isotype staining and provided in each window. (B) Representative (1 of 3) IL-1RAP staining of whole human cord blood cells. IL-1RAP staining is provided for whole CD34+, CD34+/CD38−, and CD34+/CD38+ HSC cord blood subpopulations. […] Percentages were calculated using absolute cell number determined using Trucount™ tubes based on 5000 fluorescent-bead cytometry acquisition. […] The quantification was performed after acquiring 5000 fluorescent beads. […] Cell killing was calculated as follows: % Dead cells=[1−(absolute number of viable cells in AP1903-treated cells/absolute number of viable cells in untreated cells)]×100. […] (G) Absolute quantification of IL-1RAP CAR T cells injected in a tumor (CML KU812, i.v.) xenograft NSG model 24 h after i.p. AP1903 (white bars) treatment (n=3 mice/group). […]
molecule,measurement,setting,value
"#E3C3: mouse anti-hIL-1RAP monoclonal antibody subclone generated by standard hybridoma technique; VH SEQ ID NO: 2, VL SEQ ID NO: 4 (antibody, V domains shown, Amino acid sequence of chain H (VH) of murine scFv anti-IL-1RAP; Amino acid sequence of chain K (VL) of murine scFv anti-IL-1RAP) VH: MGWSCIILFLVATATGVNSQVQLQQPGAELMMPGASVKVSCEASGYTFTDSWMHWVKQRPGQGLEWIGAIDPSDSYTTYNQKFTGKATLSVDESSNTAYMQLSSLTSEDSAVYYCARYYSGSNYISPFPYWGQGTLVTVSA VL: MESQIQVFVFVFLWLSGVDGDIVMTQSHKFMSTSVGDRVTITCKASLDVSTAVAWYQQKPGQSPKLLIYSASYRYTGVPDRFTGSGSGTDFTFTISSVQAEDLAVYYCQQHYSPPFTFGSGTNLEIK",relative fluorescence intensity (RFI) by cytometry among subclones,[1],highest relative fluorescence intensity
same,detection in western blot,IL-1RAP,reveals KU812
same,RFI of monocyte staining (weak staining),monocyte subpopulation,< 2
